Data on ten molecules can be found in patent publication US20240400675A1 (published 2024).

Test [1] deals with T1, human CLDN6 (human, UniProt P56747 1-220).
T1 construct: also called Claudin 6
T1 sequence: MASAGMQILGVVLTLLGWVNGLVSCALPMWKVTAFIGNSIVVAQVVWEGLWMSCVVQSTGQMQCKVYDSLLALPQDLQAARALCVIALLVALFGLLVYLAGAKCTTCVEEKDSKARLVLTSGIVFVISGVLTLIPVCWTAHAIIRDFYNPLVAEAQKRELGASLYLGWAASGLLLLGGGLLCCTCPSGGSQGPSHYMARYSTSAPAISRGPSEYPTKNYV
Nature of the test: flow cytometry on HEK293E cells expressing CLDN6. The procedure:
(§1) The following experiments used to screen CLDN6 binding domains were generally performed as follows. HEK293T or HEK293E cells were respectively stably or transiently transfected to express CLDN6, CLND9, or other targets of interest. 48 hours post transfection, cells were harvested and incubated with dilutions of the indicated test articles for 1 hour at 4° C. […] Binding was then assessed via flow cytometry.

For test [2], the target named is T1, human CLDN6. Nature of the test: flow cytometry on HEK293E cells expressing CLDN6 or CLDN9; EC50 on CLDN9 cells divided by EC50 on CLDN6 cells. As to the method: as §1
In general terms: A flow cytometer gives signals particle by particle.

In test [3] the target is T1, human CLDN6. Nature of the test: flow cytometry on transfected cells.
The target of test [4] is T1, human CLDN6. The experiment in a line: flow cytometry on HEK293-Trex cells stably expressing the claudin.
Test [5] has as its target T2, human CLDN9 (human, UniProt O95484 1-217).
T2 construct: also called CLND9
T2 sequence: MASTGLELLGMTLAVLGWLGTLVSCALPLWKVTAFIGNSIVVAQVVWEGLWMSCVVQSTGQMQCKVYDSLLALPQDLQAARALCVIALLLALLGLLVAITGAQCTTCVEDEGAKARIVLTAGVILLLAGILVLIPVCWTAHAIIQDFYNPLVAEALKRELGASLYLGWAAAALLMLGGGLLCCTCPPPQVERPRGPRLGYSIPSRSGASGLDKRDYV
The experiment in a line: flow cytometry on transfected HEK293E cells. As to the method:
as §1

Substitutions are numbered along the chain they refer to. Numbers in names are those of the source.

B1: XENP37231 (C6-30_H1.24_L1.187), 2+1 Fab2-scFv-Fc bsAb with CD3 High-Int #1 (bispecific antibody)
heavy 1: QVQLVQSGAEVKKPGASVKVSCKTSGYTFTEYTMHWVRQAPGQSLEWMGGIDPNNGNTHYNQKFQGRVTITVDKSASTAYMELSSLRSEDTAVYYCARIYYLGRLYFDFWGAGTLVTVSSASTKGPSVFPLAPSSKSTSGGTAALGCLVKDYFPEPVTVSWNSGALTSGVHTFPAVLQSSGLYSLSSVVTVPSSSLGTQTYICNVNHKPSDTKVDKKVEPKSCDKTHTCPPCPAPPVAGPSVFLFPPKPKDTLMISRTPEVTCVVVDVKHEDPEVKFNWYVDGVEVHNAKTKPREEEYNSTYRVVSVLTVLHQDWLNGKEYKCKVSNKALPAPIEKTISKAKGQPREPQVYTLPPSREEMTKNQVSLTCDVSGFYPSDIAVEWESDGQPENNYKTTPPVLDSDGSFFLYSKLTVDKSRWEQGDVFSCSVMHEALHNHYTQKSLSLSPGK
heavy 2: QVQLVQSGAEVKKPGASVKVSCKTSGYTFTEYTMHWVRQAPGQSLEWMGGIDPNNGNTHYNQKFQGRVTITVDKSASTAYMELSSLRSEDTAVYYCARIYYLGRLYFDFWGAGTLVTVSSASTKGPSVFPLAPSSKSTSGGTAALGCLVKDYFPEPVTVSWNSGALTSGVHTFPAVLQSSGLYSLSSVVTVPSSSLGTQTYICNVNHKPSNTKVDKKVEPKSCGGGGSGGGGSQAVVTQEPSLTVSPGGTVTLTCGSSTGAVTTSNYANWVQQKPGKSPRGLIGGTNKRAPGVPARFSGSLLGGKAALTISGAQPEDEADYYCALWYSNHWVFGGGTKLTVLGKPGSGKPGSGKPGSGKPGSEVQLVESGGGLVQPGGSLRLSCAASGFTFSTYAMNWVRQAPGKGLEWVGRIRSKANNYATYYADSVKGRFTISRDDSKNTLYLQMNSLRAEDTAVYYCVRHGNFGDSYVSWFAYWGQGTLVTVSSGGGGSGGGGSKTHTCPPCPAPPVAGPSVFLFPPKPKDTLMISRTPEVTCVVVDVKHEDPEVKFNWYVDGVEVHNAKTKPREEQYNSTYRVVSVLTVLHQDWLNGKEYKCKVSNKALPAPIEKTISKAKGQPREPQVYTLPPSREQMTKNQVKLTCLVKGFYPSDIAVEWESNGQPENNYKTTPPVLDSDGSFFLYSKLTVDKSRWQQGNVFSCSVMHEALHNHYTQKSLSLSPGK
light: not shown
notes: copies: 1 + 1 + 2
As to B1, in test [1], the binding result is reported as “binds”.

B2: XENP37233 (C6-30_H2.91_L1.187), 2+1 Fab2-scFv-Fc bsAb with CD3 High-Int #1 (bispecific antibody)
heavy 1: EVQLVQSGAEVKKPGESLRISCKTSGYTFTEYTMHWVRQMPGKSLEWMGGIDPNNFNTHYNQKFQGHVTISVDKSISTAYLQWSSLKASDTAMYYCARIYYFGRLYFDFWGAGTLVTVSSASTKGPSVFPLAPSSKSTSGGTAALGCLVKDYFPEPVTVSWNSGALTSGVHTFPAVLQSSGLYSLSSVVTVPSSSLGTQTYICNVNHKPSDTKVDKKVEPKSCDKTHTCPPCPAPPVAGPSVFLFPPKPKDTLMISRTPEVTCVVVDVKHEDPEVKFNWYVDGVEVHNAKTKPREEEYNSTYRVVSVLTVLHQDWLNGKEYKCKVSNKALPAPIEKTISKAKGQPREPQVYTLPPSREEMTKNQVSLTCDVSGFYPSDIAVEWESDGQPENNYKTTPPVLDSDGSFFLYSKLTVDKSRWEQGDVFSCSVMHEALHNHYTQKSLSLSPGK
heavy 2: EVQLVQSGAEVKKPGESLRISCKTSGYTFTEYTMHWVRQMPGKSLEWMGGIDPNNFNTHYNQKFQGHVTISVDKSISTAYLQWSSLKASDTAMYYCARIYYFGRLYFDFWGAGTLVTVSSASTKGPSVFPLAPSSKSTSGGTAALGCLVKDYFPEPVTVSWNSGALTSGVHTFPAVLQSSGLYSLSSVVTVPSSSLGTQTYICNVNHKPSNTKVDKKVEPKSCGGGGSGGGGSQAVVTQEPSLTVSPGGTVTLTCGSSTGAVTTSNYANWVQQKPGKSPRGLIGGTNKRAPGVPARFSGSLLGGKAALTISGAQPEDEADYYCALWYSNHWVFGGGTKLTVLGKPGSGKPGSGKPGSGKPGSEVQLVESGGGLVQPGGSLRLSCAASGFTFSTYAMNWVRQAPGKGLEWVGRIRSKANNYATYYADSVKGRFTISRDDSKNTLYLQMNSLRAEDTAVYYCVRHGNFGDSYVSWFAYWGQGTLVTVSSGGGGSGGGGSKTHTCPPCPAPPVAGPSVFLFPPKPKDTLMISRTPEVTCVVVDVKHEDPEVKFNWYVDGVEVHNAKTKPREEQYNSTYRVVSVLTVLHQDWLNGKEYKCKVSNKALPAPIEKTISKAKGQPREPQVYTLPPSREQMTKNQVKLTCLVKGFYPSDIAVEWESNGQPENNYKTTPPVLDSDGSFFLYSKLTVDKSRWQQGNVFSCSVMHEALHNHYTQKSLSLSPGK
light: not shown
notes: copies: 1 + 1 + 2
Turning to B2, in test [1], the binding result was “binds”.

B3: XENP34218, humanized C6-30 H1L1 bivalent mAb (antibody, human IgG1, kappa, V domains shown)
VH: QVQLVQSGAEVKKPGASVKVSCKTSGYTFTEYTMHWVRQAPGQSLEWMGGIDPNNGNTHYNQKFQGRVTITVDKSASTAYMELSSLRSEDTAVYYCARIYYFGRLYFDFWGAGTLVTVSS
VL: DIQMTQSPSSLSASVGDRVTITCQASEDIYNRLAWYQQKPGKVPKLLISGATSLETGVPSRFSGSGSGKDYTFTISSLQPEDIATYYCQQYWSSPLTFGGGTKVEIKR
notes: IgG1 backbone with E233P/L234V/L235A/G236del/S267K ablation variant; also called XENP34218_HIL1
For B3, in test [2], the “CLDN9/CLDN6 EC50 ratio” value was 23.

B4: XENP35093 (having C6-30 H1.9_L1) (antibody, human IgG1, kappa, V domains shown)
VH: B3 VH with G56A
VL: B3 VL
notes: Bivalent mAb; also called G55A; copies: 2 + 2
In the case of B4, in test [3], the binding result is “binds”.

B5: XENP36972 having H1_L1.187 (antibody, human IgG1, kappa, V domains shown)
VH: B3 VH
VL: B3 VL with S94A
notes: Bivalent mAb; also called C6-30 H1_L1.187; copies: 2 + 2
Regarding B5, the “CLDN9/CLDN6 EC50 ratio” value in test [2] was determined as 52.6.

B6: XENP34221, humanized C6-30 H2L2 bivalent mAb (antibody, human IgG1, kappa, V domains shown)
VH: EVQLVQSGAEVKKPGESLRISCKTSGYTFTEYTMHWVRQMPGKSLEWMGGIDPNNGNTHYNQKFQGHVTISVDKSISTAYLQWSSLKASDTAMYYCARIYYFGRLYFDFWGAGTLVTVSS
VL: DIQMTQSPDSLAVSLGERATINCKASEDIYNRLAWYQQKPGQVPKLLISGATSLETGVPSRFSGSGSGKDYTLTISSLQAEDVAVYYCQQYWSSPLTFGGGTKVEIKR
notes: IgG1 with ablation variant; copies: 2 + 2
For B6, the binding result in test [4] is listed as “binds”.

B7: XENP34220, humanized C6-30 H2L1 bivalent mAb (antibody, human IgG1, kappa, V domains shown)
VH: B6 VH
VL: B3 VL
notes: IgG1 backbone with ablation variant; copies: 2 + 2
Regarding B7, in test [3], the binding result is listed as “binds”.

B8: XENP35101 having H2.8_L1 (antibody, human IgG1, kappa, V domains shown)
VH: B6 VH with G56D
VL: B3 VL
notes: Bivalent mAb; also called C6-30 H2.8_L1; copies: 2 + 2
For B8, the binding result in test [5] is listed as “binds”.

B9: XENP34219, humanized C6-30 H1L2 bivalent mAb (antibody, human IgG1, kappa, V domains shown)
VH: B3 VH
VL: B6 VL
notes: as for B6
As for B9, the binding result in test [3] is given as “binds”.

B10: XENP35102 having H2.9_L1 (antibody, human IgG1, kappa, V domains shown)
VH: B6 VH with G56A
VL: B3 VL
notes: Bivalent mAb; also called C6-30 H2.9_L1; copies: 2 + 2
As for B10, in test [5], the binding result is recorded as “binds”.
